According to patent publication US20160347810A1 (AFASCI, published 2016):
No end group written: not given here.

B1: AFA-Peptide 3 (MP-3) (peptide)
peptide: H-NFVPTNVGPFAF-NH2
notes: Synthetic dodecapeptide NH2-N-F-V-P-T-N-V-G-P-F-A-F-CONH2; also called AFA-CGRP receptor antagonist peptide 3
B2: AFA-Peptide 7 (MP-7) (peptide)
peptide: H-NFLPTNVGPFAF-NH2
notes: Analog of AFA-peptide 3: NH2-N-F-L-P-T-N-V-G-P-F-A-F-CONH2
B3: AFA-Peptide 8 (MP-8) (peptide)
peptide: H-NLVPTNVGPFAF-NH2
notes: Analog of AFA-peptide 3: NH2-N-L-V-P-T-N-V-G-P-F-A-F-CONH2
B4: AFA-Peptide 9 (MP-9) (peptide)
peptide: H-NFFPTNVGPFAF-NH2
notes: Analog of AFA-peptide 3: NH2-N-F-F-P-T-N-V-G-P-F-A-F-CONH2
B5: AFA-Peptide 10 (MP-10) (peptide)
peptide: H-NFAPTNVGPFAF-NH2
notes: Analog of AFA-peptide 3: NH2-N-F-A-P-T-N-V-G-P-F-A-F-CONH2
B6: AFA-Peptide 6 (MP-6) (peptide)
peptide: H-NFIPTNVGPFAF-NH2
notes: Analog of AFA-peptide 3: NH2-N-F-I-P-T-N-V-G-P-F-A-F-CONH2
B7: CGRP 27-37 (peptide)
peptide: YVPTAVGPFAF-NH2
notes: also called conventional CGRP 27-37

Target: T1, human calcitonin CGRP1 (CGRP1) membrane (human, UniProt Q16602 23-461; O60894 27-148)
T1 construct: whole, on cells; Purchased membrane preparation (Perkin Elmer), homogenised in assay buffer; the receptor stood in membranes, not intact cells; also called CGRP receptors; CGRP receptor
T1 sequence (Q16602 23-461, chain 1 of 2): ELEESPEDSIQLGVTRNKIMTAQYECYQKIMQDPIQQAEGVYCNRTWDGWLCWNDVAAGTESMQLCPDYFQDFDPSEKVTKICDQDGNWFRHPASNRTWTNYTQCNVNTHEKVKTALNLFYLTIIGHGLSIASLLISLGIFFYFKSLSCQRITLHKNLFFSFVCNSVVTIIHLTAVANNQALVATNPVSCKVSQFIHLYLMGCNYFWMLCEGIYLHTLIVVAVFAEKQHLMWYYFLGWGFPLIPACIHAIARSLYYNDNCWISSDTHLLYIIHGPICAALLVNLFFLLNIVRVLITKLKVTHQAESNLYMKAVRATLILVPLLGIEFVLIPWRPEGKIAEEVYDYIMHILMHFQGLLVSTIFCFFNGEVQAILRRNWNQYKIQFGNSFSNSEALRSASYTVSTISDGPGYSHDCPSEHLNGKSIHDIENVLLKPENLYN
T1 sequence (O60894 27-148, chain 2 of 2): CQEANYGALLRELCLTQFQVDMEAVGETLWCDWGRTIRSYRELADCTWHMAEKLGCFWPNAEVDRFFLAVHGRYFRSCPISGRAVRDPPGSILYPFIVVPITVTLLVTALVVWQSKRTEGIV
Assay: displacement of 0.24 nM [125I]-CGRP from human CGRP1 receptor membranes, filtration; Ki by Cheng-Prusoff; mean ± SD
Protocol: CGRP1 membrane was homogenized in the assay buffer (50 mM Tris-HCl pH 7.4, 5 mM MgCl₂, 0.5% BSA, 0.05% Tween20). […] After 1 h of incubation, at room temperature, samples were filtered, using a Tomtec cell harvester, through glass fiber filters that had been presoaked in 0.05% polyethyleneimine and washed with the cold Tris buffer (50 mM Tris-HCl pH7.4). Filters were counted on a betaplate reader (Wallac).

Binder	Ki [µM]
B1	0.0333
B2	0.0548
B3	0.315
B4	0.0496
B5	0.0334
B6	0.0637
B7	0.697
